For the data set, the target named is T1, TCF/Pangolin HMG + C-clamp fragment (UniProt P91943 273-400).
T1 sequence: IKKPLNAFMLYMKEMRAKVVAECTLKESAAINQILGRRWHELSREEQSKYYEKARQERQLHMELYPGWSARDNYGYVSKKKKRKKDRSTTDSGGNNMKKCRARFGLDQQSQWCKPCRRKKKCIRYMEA
Briefly: competition EMSA; labeled AK6 probe; 10 mM Tris-HCl pH 7.5, 50 mM KCl, 1 mM DTT, 50 mM MgCl2 (so in the source), 0.05% NP40, 3.5% glycerol, 50 ug/ml poly(dIdC); 6 pmol protein, 0-2.4 pmol competitor, 20. Conditions: protein: recombinant, tags: His (pET52b(+), XmaI/SacI), blunt.

B1: FF0 competitor (dsDNA)
DNA 1: TGGTACGATCCTTTGATCTTGCCGCCAGTCGTACAC
DNA 2: GTGTACGACTGGCGGCAAGATCAAAGGATCGTACCA
In general, IC50 refers to the concentration at which inhibition is half-maximal. For B1, the concentration for half-maximal inhibition (IC50) came to 9.4 nM.

B2: KK6 competitor (dsDNA)
DNA 1: TACGATCCTTTGATCTTTGCAGTTGGCGGCGTCGTA
DNA 2: TACGACGCCGCCAACTGCAAAGATCAAAGGATCGTA
As to B2, the IC50 was found to be 99.7 nM.

B3: RW0 competitor (dsDNA)
DNA 1: TGGTACGATAAGATCAAAGGTGGCGGCGTCGTACAC
DNA 2: GTGTACGACGCCGCCACCTTTGATCTTATCGTACCA
For the molecule B3, the IC50 was 189 nM.

B4: AK6 competitor (dsDNA)
DNA 1: TACGATAAGATCAAAGGTGCAGTGCCGCCAGTCGTA
DNA 2: TACGACTGGCGGCACTGCACCTTTGATCTTATCGAC
With B4, the half-inhibitory concentration (IC50) (printed reverse strand is mismatched at its last 2 nt (atcgac vs atcgta)) was found to be 5.1 nM.

For the origin of these results see publication PMC4154663, “Bipartite Recognition of DNA by TCF/Pangolin Is Remarkably Flexible and Contributes to Transcriptional Responsiveness and Tissue Specificity of Wingless Signaling”.
